Test results from patent publication US20170122964.

System: nucleosome on the remodeling DNA template with Atto 647N labeled histone H2B

ACF remodeling complex
FRET signal (nucleosome sliding assay): Nucleosome on the remodeling DNA template shows FRET signal, which is reduced over time by the remodeling complex.
